Data taken from patent publication US10328136.

Target: nectin-1 (human) (UniProt Q15223)
Test: cell-based or functional assay

UniProt Q15223, sequence (Q15223 31-517): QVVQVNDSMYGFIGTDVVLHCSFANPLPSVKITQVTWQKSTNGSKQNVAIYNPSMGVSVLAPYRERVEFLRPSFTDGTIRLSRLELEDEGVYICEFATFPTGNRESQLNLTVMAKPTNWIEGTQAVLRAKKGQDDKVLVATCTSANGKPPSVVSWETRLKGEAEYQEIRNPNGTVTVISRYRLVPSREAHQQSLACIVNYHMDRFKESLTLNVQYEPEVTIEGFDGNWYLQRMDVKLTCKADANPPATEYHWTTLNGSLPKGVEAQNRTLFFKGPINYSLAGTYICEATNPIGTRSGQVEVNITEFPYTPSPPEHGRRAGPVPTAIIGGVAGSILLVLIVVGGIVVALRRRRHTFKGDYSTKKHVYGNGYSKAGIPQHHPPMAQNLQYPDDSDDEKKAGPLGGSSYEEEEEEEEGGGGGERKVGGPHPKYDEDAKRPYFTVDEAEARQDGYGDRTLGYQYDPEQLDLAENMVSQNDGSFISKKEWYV

For “wild-type glycoprotein D (gD) of HSV-1 strain KOS”, the entry of QOZHG into J/C cells (X-gal staining at 24 hpi, MOI=10) was 100%.
